In patent US20130171147A1:

Molecular target: rat prolactin receptor (PRLR) on Nb2 lymphoma cells (rat) (UniProt P05710)
Test: FACS on rat lymphoma cell line Nb2, IgG1

Binder	EC50 [nM]
001-E06 (human IgG1) (antibody, V domains shown) VH: QVELLESGGGLVQPGGSLRLSCAASGFTFSSYWMSWVRQAPGKGLEWVSSVSDTGTDTHYADSVKGRFTISRDNSKNTLYLQMNSLRAEDTAVYYCAKTPLAYSSGWYYFDYWGQGTLVTVSS VL: DIVLTQPPSASGTPGQRVTISCSGSSSNIGSNTVNWYQQLPGTAPKLLIYRNYQRPSGVPDRFSGSKSGTSASLAISGLRSEDEADYYCQSYDSSLSGSVFGGGTKLTVLG	1.2
HE06.642 (antibody, IgG1, V domains shown) VH: EVQLVESGGGLVQPGGSLRLSCAVSGFTFSSYGMSWVRQAPGKGLEWVATVSSGGTYTYYPDSVKGRFTISRDNSKNTLYLQMNSLRAEDTAVYYCARHRGNYYATYYYAMDYWGQGTLVTVSS VL: DIVLTQSPDSLAVSLGERATINCKASKSVSTSGYTYMHWYQQKPGQPPKLLIYLASNRESGVPDRFSGSGSGTDFTLTISPVQAEDVATYYCQHSGELPPSFGQGTKLEIKR	0.3
